Numbered stars: 1 amine (or outer) side, 2 acyl side, 3 side chain; on linkers, the order of the positions; unused ones are H or OH. Bridge positions count the residues as written; N and C are the ends. Side chains are listed from the residue outwards. Ends that are not written are not given here. * marks the point of attachment. C20 diacid = O=C(O)CCCCCCCCCCCCCCCCCCC(=O)*; γGlu = O=C(O)[C@H](CCC(=O)[*:2])N[*:1]

As usually defined, the IC50 is the concentration that inhibits the measured activity by half. Low readings indicate higher potency, high ones lower potency.

Sequences and labels used below:
B1: N^ε1-[(4S)-4-carboxy-4-(19-carboxynonadecanoylamino)butanoyl]-[His14,Arg17,Pro21,Pro27]-h-amylin (peptide)
peptide: K([γGlu-C20 diacid])CNTATCATQRLAHFLRHSSPNFGAIPSSTNVGSNTY-NH2
modifications: disulfide 2-7; N-terminus assumed
SMILES: CC[C@H](C)[C@H](NC(=O)[C@H](C)NC(=O)CNC(=O)[C@H](Cc1ccccc1)NC(=O)[C@H](CC(N)=O)NC(=O)[C@@H]1CCCN1C(=O)[C@H](CO)NC(=O)[C@H](CO)NC(=O)[C@H](Cc1c[nH]cn1)NC(=O)[C@H](CCCNC(=N)N)NC(=O)[C@H](CC(C)C)NC(=O)[C@H](Cc1ccccc1)NC(=O)[C@H](Cc1c[nH]cn1)NC(=O)[C@H](C)NC(=O)[C@H](CC(C)C)NC(=O)[C@H](CCCNC(=N)N)NC(=O)[C@H](CCC(N)=O)NC(=O)[C@@H](NC(=O)[C@H](C)NC(=O)[C@@H]1CSSC[C@H](NC(=O)[C@@H](N)CCCCNC(=O)CC[C@H](NC(=O)CCCCCCCCCCCCCCCCCCC(=O)O)C(=O)O)C(=O)N[C@@H](CC(N)=O)C(=O)N[C@@H]([C@@H](C)O)C(=O)N[C@@H](C)C(=O)N[C@@H]([C@@H](C)O)C(=O)N1)[C@@H](C)O)C(=O)N1CCC[C@H]1C(=O)N[C@@H](CO)C(=O)N[C@@H](CO)C(=O)N[C@H](C(=O)N[C@@H](CC(N)=O)C(=O)N[C@H](C(=O)NCC(=O)N[C@@H](CO)C(=O)N[C@@H](CC(N)=O)C(=O)N[C@H](C(=O)N[C@@H](Cc1ccc(O)cc1)C(N)=O)[C@@H](C)O)C(C)C)[C@@H](C)O
notes: also called 14H, 17R, 21P, 27P
B2: N^ε1-[(4S)-4-carboxy-4-[[(4S)-4-carboxy-4-(19-carboxynonadecanoylamino)butanoyl]amino]butanoyl]-[Glu14,Arg17,Pro21,Pro27,Arg34,Glu35]-h-amylin (peptide)
peptide: K([γGlu-γGlu-C20 diacid])CNTATCATQRLAEFLRHSSPNFGAIPSSTNVGRETY-NH2
modifications: disulfide 2-7; N-terminus assumed
SMILES: CC[C@H](C)[C@H](NC(=O)[C@H](C)NC(=O)CNC(=O)[C@H](Cc1ccccc1)NC(=O)[C@H](CC(N)=O)NC(=O)[C@@H]1CCCN1C(=O)[C@H](CO)NC(=O)[C@H](CO)NC(=O)[C@H](Cc1c[nH]cn1)NC(=O)[C@H](CCCNC(=N)N)NC(=O)[C@H](CC(C)C)NC(=O)[C@H](Cc1ccccc1)NC(=O)[C@H](CCC(=O)O)NC(=O)[C@H](C)NC(=O)[C@H](CC(C)C)NC(=O)[C@H](CCCNC(=N)N)NC(=O)[C@H](CCC(N)=O)NC(=O)[C@@H](NC(=O)[C@H](C)NC(=O)[C@@H]1CSSC[C@H](NC(=O)[C@@H](N)CCCCNC(=O)CC[C@H](NC(=O)CC[C@H](NC(=O)CCCCCCCCCCCCCCCCCCC(=O)O)C(=O)O)C(=O)O)C(=O)N[C@@H](CC(N)=O)C(=O)N[C@@H]([C@@H](C)O)C(=O)N[C@@H](C)C(=O)N[C@@H]([C@@H](C)O)C(=O)N1)[C@@H](C)O)C(=O)N1CCC[C@H]1C(=O)N[C@@H](CO)C(=O)N[C@@H](CO)C(=O)N[C@H](C(=O)N[C@@H](CC(N)=O)C(=O)N[C@H](C(=O)NCC(=O)N[C@@H](CCCNC(=N)N)C(=O)N[C@@H](CCC(=O)O)C(=O)N[C@H](C(=O)N[C@@H](Cc1ccc(O)cc1)C(N)=O)[C@@H](C)O)C(C)C)[C@@H](C)O
notes: also called 14E, 17R, 21P, 27P, 34R, 35E
B3: N^ε1-[(4S)-4-carboxy-4-[[(4S)-4-carboxy-4-(19-carboxynonadecanoylamino)butanoyl]amino]butanoyl]-[Asp14,Arg17,Pro21,Pro27,Asp35]-h-amylin (peptide)
peptide: K([γGlu-γGlu-C20 diacid])CNTATCATQRLADFLRHSSPNFGAIPSSTNVGSDTY-NH2
modifications: disulfide 2-7; N-terminus assumed
SMILES: CC[C@H](C)[C@H](NC(=O)[C@H](C)NC(=O)CNC(=O)[C@H](Cc1ccccc1)NC(=O)[C@H](CC(N)=O)NC(=O)[C@@H]1CCCN1C(=O)[C@H](CO)NC(=O)[C@H](CO)NC(=O)[C@H](Cc1c[nH]cn1)NC(=O)[C@H](CCCNC(=N)N)NC(=O)[C@H](CC(C)C)NC(=O)[C@H](Cc1ccccc1)NC(=O)[C@H](CC(=O)O)NC(=O)[C@H](C)NC(=O)[C@H](CC(C)C)NC(=O)[C@H](CCCNC(=N)N)NC(=O)[C@H](CCC(N)=O)NC(=O)[C@@H](NC(=O)[C@H](C)NC(=O)[C@@H]1CSSC[C@H](NC(=O)[C@@H](N)CCCCNC(=O)CC[C@H](NC(=O)CC[C@H](NC(=O)CCCCCCCCCCCCCCCCCCC(=O)O)C(=O)O)C(=O)O)C(=O)N[C@@H](CC(N)=O)C(=O)N[C@@H]([C@@H](C)O)C(=O)N[C@@H](C)C(=O)N[C@@H]([C@@H](C)O)C(=O)N1)[C@@H](C)O)C(=O)N1CCC[C@H]1C(=O)N[C@@H](CO)C(=O)N[C@@H](CO)C(=O)N[C@H](C(=O)N[C@@H](CC(N)=O)C(=O)N[C@H](C(=O)NCC(=O)N[C@@H](CO)C(=O)N[C@@H](CC(=O)O)C(=O)N[C@H](C(=O)N[C@@H](Cc1ccc(O)cc1)C(N)=O)[C@@H](C)O)C(C)C)[C@@H](C)O
notes: also called 14D, 17R, 21P, 27P, 35D
B4: N^ε1-[(4S)-4-carboxy-4-[[(4S)-4-carboxy-4-(19-carboxynonadecanoylamino)butanoyl]amino]butanoyl]-[Asp14,Arg17,Pro21,Pro27,Arg35]-h-amylin (peptide)
peptide: K([γGlu-γGlu-C20 diacid])CNTATCATQRLADFLRHSSPNFGAIPSSTNVGSRTY-NH2
modifications: disulfide 2-7; N-terminus assumed
SMILES: CC[C@H](C)[C@H](NC(=O)[C@H](C)NC(=O)CNC(=O)[C@H](Cc1ccccc1)NC(=O)[C@H](CC(N)=O)NC(=O)[C@@H]1CCCN1C(=O)[C@H](CO)NC(=O)[C@H](CO)NC(=O)[C@H](Cc1c[nH]cn1)NC(=O)[C@H](CCCNC(=N)N)NC(=O)[C@H](CC(C)C)NC(=O)[C@H](Cc1ccccc1)NC(=O)[C@H](CC(=O)O)NC(=O)[C@H](C)NC(=O)[C@H](CC(C)C)NC(=O)[C@H](CCCNC(=N)N)NC(=O)[C@H](CCC(N)=O)NC(=O)[C@@H](NC(=O)[C@H](C)NC(=O)[C@@H]1CSSC[C@H](NC(=O)[C@@H](N)CCCCNC(=O)CC[C@H](NC(=O)CC[C@H](NC(=O)CCCCCCCCCCCCCCCCCCC(=O)O)C(=O)O)C(=O)O)C(=O)N[C@@H](CC(N)=O)C(=O)N[C@@H]([C@@H](C)O)C(=O)N[C@@H](C)C(=O)N[C@@H]([C@@H](C)O)C(=O)N1)[C@@H](C)O)C(=O)N1CCC[C@H]1C(=O)N[C@@H](CO)C(=O)N[C@@H](CO)C(=O)N[C@H](C(=O)N[C@@H](CC(N)=O)C(=O)N[C@H](C(=O)NCC(=O)N[C@@H](CO)C(=O)N[C@@H](CCCNC(=N)N)C(=O)N[C@H](C(=O)N[C@@H](Cc1ccc(O)cc1)C(N)=O)[C@@H](C)O)C(C)C)[C@@H](C)O
notes: also called 14D, 17R, 21P, 27P, 35R
B5: N^ε1-[(4S)-4-carboxy-4-[[(4S)-4-carboxy-4-(19-carboxynonadecanoylamino)butanoyl]amino]butanoyl]-[Asp14,Arg17,Pro21,Pro27,Pro34,Glu35]-h-amylin (peptide)
peptide: K([γGlu-γGlu-C20 diacid])CNTATCATQRLADFLRHSSPNFGAIPSSTNVGPETY-NH2
modifications: disulfide 2-7; N-terminus assumed
SMILES: CC[C@H](C)[C@H](NC(=O)[C@H](C)NC(=O)CNC(=O)[C@H](Cc1ccccc1)NC(=O)[C@H](CC(N)=O)NC(=O)[C@@H]1CCCN1C(=O)[C@H](CO)NC(=O)[C@H](CO)NC(=O)[C@H](Cc1c[nH]cn1)NC(=O)[C@H](CCCNC(=N)N)NC(=O)[C@H](CC(C)C)NC(=O)[C@H](Cc1ccccc1)NC(=O)[C@H](CC(=O)O)NC(=O)[C@H](C)NC(=O)[C@H](CC(C)C)NC(=O)[C@H](CCCNC(=N)N)NC(=O)[C@H](CCC(N)=O)NC(=O)[C@@H](NC(=O)[C@H](C)NC(=O)[C@@H]1CSSC[C@H](NC(=O)[C@@H](N)CCCCNC(=O)CC[C@H](NC(=O)CC[C@H](NC(=O)CCCCCCCCCCCCCCCCCCC(=O)O)C(=O)O)C(=O)O)C(=O)N[C@@H](CC(N)=O)C(=O)N[C@@H]([C@@H](C)O)C(=O)N[C@@H](C)C(=O)N[C@@H]([C@@H](C)O)C(=O)N1)[C@@H](C)O)C(=O)N1CCC[C@H]1C(=O)N[C@@H](CO)C(=O)N[C@@H](CO)C(=O)N[C@H](C(=O)N[C@@H](CC(N)=O)C(=O)N[C@H](C(=O)NCC(=O)N1CCC[C@H]1C(=O)N[C@@H](CCC(=O)O)C(=O)N[C@H](C(=O)N[C@@H](Cc1ccc(O)cc1)C(N)=O)[C@@H](C)O)C(C)C)[C@@H](C)O
notes: also called 14D, 17R, 21P, 27P, 34P, 35E

For the assay, the target named is T1, human amylin receptor (human, UniProt P30988 25-474; O60896 24-148, limits assumed).
T1 construct: whole, on cells; Calcitonin receptor plus RAMP-3 gives the amylin 3(a) receptor; membranes of Amylin 3(a)/CRE-luc cells were used; also called hAmylin-R; hAmylinR
T1 sequence (looked up) 1: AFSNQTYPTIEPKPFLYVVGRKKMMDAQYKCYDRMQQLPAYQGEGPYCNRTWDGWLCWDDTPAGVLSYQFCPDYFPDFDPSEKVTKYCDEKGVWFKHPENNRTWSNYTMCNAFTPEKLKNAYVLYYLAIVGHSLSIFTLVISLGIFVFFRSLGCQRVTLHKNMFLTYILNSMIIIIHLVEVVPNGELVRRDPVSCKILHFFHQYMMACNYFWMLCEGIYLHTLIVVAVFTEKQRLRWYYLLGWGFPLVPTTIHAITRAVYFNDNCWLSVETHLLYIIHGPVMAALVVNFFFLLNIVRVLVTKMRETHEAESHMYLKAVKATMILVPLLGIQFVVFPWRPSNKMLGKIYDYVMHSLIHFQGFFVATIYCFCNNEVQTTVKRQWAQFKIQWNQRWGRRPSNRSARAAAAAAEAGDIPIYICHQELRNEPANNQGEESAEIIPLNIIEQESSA
T1 sequence (looked up) 2: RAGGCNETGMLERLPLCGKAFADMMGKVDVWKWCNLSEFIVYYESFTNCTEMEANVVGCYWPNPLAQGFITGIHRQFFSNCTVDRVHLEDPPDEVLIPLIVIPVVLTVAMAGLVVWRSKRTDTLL
Put plainly: SPA competition binding, displacement of 125I-rat amylin from membranes with human amylin 3(a) receptor (Assay V). An outline of the steps: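 Membranes from BHK Amylin 3(a)/CRE-luc cells (35 ng/μL final) were mixed with SPA beads and test compounds in 50 mM Hepes pH 7.4 with 1 mM CaCl2, 5 mM MgCl₂, 0.1% OA and 0.02% Tween20. Incubation ran 120 min at 25° C with shaking; IC₅₀ came from one-site competition fitting.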
In general terms: In a radioligand displacement assay an active substance lowers the binding of a labelled ligand.
For B1, the concentration for half-maximal inhibition (IC50) amounted to 0.169 nM.

Molecule B2 displayed an IC50 of 0.957 nM. Then B3, with 0.411 nM; and B4, with 0.697 nM.

Turning to B5, the IC50 was 0.172 nM.

Values taken from US20140087995A1 (published 2014).
